In the supplement of paper PMC10126150:
± gives the standard deviation of the averaged measurements.

System: ATP
Assay: switch fluorescence ratio, 500 uM ATP over buffer (Cy3 cluster intensity, sum of 5 cycles each) (fold (ratio)); higher = stronger signal-on switching upon ATP binding; sequences stand for … in TCGTCGGCAGCGTCAGATGTGTATAAGAGACAGTTTTTTTTTTTTTTTTTTTTTTTTT…TC
Settings: aptamer strand: ATP DNA aptamer (quencher-CACCTGGGGGAGTATTGCGGAGGAAGG + anchor), 100 nM annealed; ATP concentration: 500 uM
Outline: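 Imaging in selection buffer was followed by imaging after 15 min with 500 uM ATP at 22 °C, for Cy3-labelled switching-strand clusters annealed to 100 nM quencher-labelled ATP aptamer on a modified Illumina MiSeq flow-cell. Five of these buffer/ATP cycles ran, separated by NaOH stripping and re-annealing. The fluorescence ratio per cluster is summed target-cycle over summed buffer-cycle Cy3 intensity, averaged per switch-domain sequence; clusters outside 100-1000 RFU were removed.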
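Note: ATP exposure 15 min at 22 °C before imaging.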

TTCTTCGGGC
switch fluorescence ratio: 1.08 ± 0.077

TTCTTGACTT
switch fluorescence ratio: 1.02 ± 0.011

TTCTTGATTT
switch fluorescence ratio: 1 ± 0.035

TTCTTGCTGG
switch fluorescence ratio: 0.997 ± 0.019

TTCTTGGGTA
switch fluorescence ratio: 0.989 ± 0.011

TTCTTTATAT
switch fluorescence ratio: 0.9721 ± 0.005

TTCTTTATGG
switch fluorescence ratio: 0.973 ± 0.028

TTCTTTGATT
switch fluorescence ratio: 1 ± 0.011

TTCTTTGGTT
switch fluorescence ratio: 0.9889 ± 0.0055

TTCTTTGTTT
switch fluorescence ratio: 1.01 ± 0.024

TTCTTTTACG
switch fluorescence ratio: 1.049 ± 0.0082

TTCTTTTATA
switch fluorescence ratio: 0.99 ± 0.04

TTCTTTTTAT
switch fluorescence ratio: 0.982 ± 0.03

TTCTTTTTCA
switch fluorescence ratio: 1.06 ± 0.067

TTGAAAAAAT
switch fluorescence ratio: 1.06 ± 0.13

TTGAAACCGG
switch fluorescence ratio: 0.998 ± 0.017

TTGAAATTAC
switch fluorescence ratio: 1.03 ± 0.065

TTGAAGAGG
switch fluorescence ratio: 1.02 ± 0.035

TTGAAGGCGT
switch fluorescence ratio: 1 ± 0.026

TTGAAGTTAT
switch fluorescence ratio: 0.9897 ± 0.0021

TTGAAGTTCG
switch fluorescence ratio: 0.986 ± 0.022

TTGAAGTTTT
switch fluorescence ratio: 0.991 ± 0.039

TTGAATACCC
switch fluorescence ratio: 1.052 ± 0.008

TTGAATGCCA
switch fluorescence ratio: 0.99 ± 0.028

TTGAATGCCG
switch fluorescence ratio: 1.04 ± 0.035

TTGAATGGGG
switch fluorescence ratio: 1.05 ± 0.043

TTGAATGTTG
switch fluorescence ratio: 1.004 ± 0.0037

TTGAATGTTT
switch fluorescence ratio: 0.992 ± 0.059

TTGAATTTTA
switch fluorescence ratio: 0.999 ± 0.033

TTGACAGGGC
switch fluorescence ratio: 0.952 ± 0.057

TTGACATGC
switch fluorescence ratio: 1.01 ± 0.044

TTGACCCAGG
switch fluorescence ratio: 1.23 ± 0.11

TTGACCGCTG
switch fluorescence ratio: 1.16 ± 0.03

TTGACCTTTG
switch fluorescence ratio: 1.01 ± 0.011

TTGACGAGTA
switch fluorescence ratio: 1.1 ± 0.13

TTGACGGGGG
switch fluorescence ratio: 1.01 ± 0.03

TTGACGTGCC
switch fluorescence ratio: 1.021 ± 0.0033

TTGACTGGG
switch fluorescence ratio: 0.991 ± 0.023

TTGACTGGTG
switch fluorescence ratio: 1.02 ± 0.013

TTGACTTGTG
switch fluorescence ratio: 0.971 ± 0.022

TTGAGCATTT
switch fluorescence ratio: 0.982 ± 0.03

TTGAGCCCCG
switch fluorescence ratio: 0.951 ± 0.047

TTGAGCGAGG
switch fluorescence ratio: 0.961 ± 0.01

TTGAGCTAGA
switch fluorescence ratio: 0.971 ± 0.025

TTGAGGATCA
switch fluorescence ratio: 1.02 ± 0.029

TTGAGGATGT
switch fluorescence ratio: 1 ± 0.034

TTGAGGGATA
switch fluorescence ratio: 1.01 ± 0.055

TTGAGGGGGC
switch fluorescence ratio: 1.01 ± 0.05

TTGAGGGGGG
switch fluorescence ratio: 1.01 ± 0.048

TTGAGGGTTG
switch fluorescence ratio: 0.987 ± 0.037

TTGAGGTTGT
switch fluorescence ratio: 0.99 ± 0.028

TTGAGTAATG
switch fluorescence ratio: 1.01 ± 0.017

TTGAGTGAAA
switch fluorescence ratio: 0.999 ± 0.0017

TTGAGTGACG
switch fluorescence ratio: 0.9845 ± 0.0025

TTGAGTTAAA
switch fluorescence ratio: 0.991 ± 0.037

TTGAGTTATT
switch fluorescence ratio: 0.96 ± 0.031

TTGATAAAGG
switch fluorescence ratio: 1.02 ± 0.026

TTGATAAAGT
switch fluorescence ratio: 0.997 ± 0.0043

TTGATACGTG
switch fluorescence ratio: 1.01 ± 0.058

TTGATATTTT
switch fluorescence ratio: 1.04 ± 0.096

TTGATCAACG
switch fluorescence ratio: 0.995 ± 0.014

TTGATCACTT
switch fluorescence ratio: 1.001 ± 0.005

TTGATCAGGC
switch fluorescence ratio: 0.996 ± 0.016

TTGATCCGAC
switch fluorescence ratio: 1.35 ± 0.25

TTGATCCGCT
switch fluorescence ratio: 1.74 ± 0.47

TTGATCGGTG
switch fluorescence ratio: 0.999 ± 0.023

TTGATCTGGT
switch fluorescence ratio: 1.01 ± 0.027

TTGATGAAAA
switch fluorescence ratio: 1 ± 0.038

TTGATGCAA
switch fluorescence ratio: 1.07 ± 0.028

TTGATGCGTT
switch fluorescence ratio: 1.01 ± 0.015

TTGATGGCGA
switch fluorescence ratio: 1.22 ± 0.3

TTGATGGGTG
switch fluorescence ratio: 0.995 ± 0.015

TTGATGGTGC
switch fluorescence ratio: 1.05 ± 0.038

TTGATTAAGA
switch fluorescence ratio: 1.06 ± 0.078

TTGATTAGGC
switch fluorescence ratio: 1.06 ± 0.029

TTGATTCAAT
switch fluorescence ratio: 1.17 ± 0.33

TTGATTCG
switch fluorescence ratio: 1.015 ± 0.0037

TTGATTCGT
switch fluorescence ratio: 0.99 ± 0.02

TTGATTTAAA
switch fluorescence ratio: 1.01 ± 0.0047

TTGATTTATA
switch fluorescence ratio: 0.983 ± 0.042

TTGATTTGCA
switch fluorescence ratio: 0.99989 ± 0.00088

TTGATTTGGT
switch fluorescence ratio: 1 ± 0.011

TTGATTTTGA
switch fluorescence ratio: 1.04 ± 0.037

TTGCAAGAGG
switch fluorescence ratio: 1.02 ± 0.024

TTGCAAGGCG
switch fluorescence ratio: 1 ± 0.062

TTGCAAGGTT
switch fluorescence ratio: 1.01 ± 0.017

TTGCACAAAA
switch fluorescence ratio: 1.033 ± 0.0078

TTGCAGCATG
switch fluorescence ratio: 1.51 ± 0.68

TTGCAGTTC
switch fluorescence ratio: 1.88 ± 1

TTGCCACTCT
switch fluorescence ratio: 1.04 ± 0.064

TTGCCAGTGT
switch fluorescence ratio: 0.996 ± 0.028

TTGCCGGGTT
switch fluorescence ratio: 1.17 ± 0.17

TTGCCTAAGC
switch fluorescence ratio: 0.974 ± 0.016

TTGCCTTTTG
switch fluorescence ratio: 1.08 ± 0.16

TTGCGAGTC
switch fluorescence ratio: 0.996 ± 0.062

TTGCGCCCCC
switch fluorescence ratio: 1.104 ± 0.011

TTGCGGGCAG
switch fluorescence ratio: 1.04 ± 0.032

TTGCGGGCCG
switch fluorescence ratio: 0.967 ± 0.068

TTGCGTTTCC
switch fluorescence ratio: 1.19 ± 0.23

TTGCGTTTCT
switch fluorescence ratio: 1.08 ± 0.086

TTGCTAGGGA
switch fluorescence ratio: 1.01 ± 0.055

TTGCTAGTTG
switch fluorescence ratio: 0.994 ± 0.036

TTGCTATACG
switch fluorescence ratio: 1.2 ± 0.13

TTGCTCAACT
switch fluorescence ratio: 1 ± 0.026

TTGCTCCCAC
switch fluorescence ratio: 1.62 ± 0.81

TTGCTCGCTC
switch fluorescence ratio: 1.16 ± 0.084

TTGCTCGTCG
switch fluorescence ratio: 1.04 ± 0.0046

TTGCTCTAGC
switch fluorescence ratio: 1.03 ± 0.018

TTGCTGATGC
switch fluorescence ratio: 1.02 ± 0.039

TTGCTGGAAG
switch fluorescence ratio: 0.978 ± 0.035

TTGCTGTCGG
switch fluorescence ratio: 0.985 ± 0.038

TTGCTGTTGC
switch fluorescence ratio: 1.001 ± 0.0095

TTGCTTAAAC
switch fluorescence ratio: 1.02 ± 0.025

TTGCTTACGG
switch fluorescence ratio: 1.02 ± 0.013

TTGCTTACTT
switch fluorescence ratio: 0.996 ± 0.019

TTGCTTCGGG
switch fluorescence ratio: 0.968 ± 0.028

TTGCTTGCGG
switch fluorescence ratio: 0.991 ± 0.041

TTGCTTGGGC
switch fluorescence ratio: 1.02 ± 0.04

TTGCTTTGTA
switch fluorescence ratio: 0.943 ± 0.018

TTGCTTTTAA
switch fluorescence ratio: 0.991 ± 0.013

TTGGAAAGGG
switch fluorescence ratio: 0.985 ± 0.016

TTGGAAAGGT
switch fluorescence ratio: 1.1 ± 0.16

TTGGAAGTC
switch fluorescence ratio: 1.04 ± 0.026

TTGGAAGTGG
switch fluorescence ratio: 0.9995 ± 0.0088

TTGGAATGGT
switch fluorescence ratio: 1.04 ± 0.029

TTGGAATTGA
switch fluorescence ratio: 0.992 ± 0.012

TTGGACAGGG
switch fluorescence ratio: 1 ± 0.02

TTGGACATGT
switch fluorescence ratio: 0.989 ± 0.027

TTGGACTATA
switch fluorescence ratio: 1.02 ± 0.043

TTGGACTGGT
switch fluorescence ratio: 1.04 ± 0.039

TTGGAGAAAT
switch fluorescence ratio: 1.05 ± 0.025

TTGGAGATAG
switch fluorescence ratio: 1.07 ± 0.1

TTGGAGCGTG
switch fluorescence ratio: 1.003 ± 0.0015

TTGGAGGAAT
switch fluorescence ratio: 1.02 ± 0.014

TTGGAGGGCT
switch fluorescence ratio: 0.978 ± 0.0032

TTGGAGTACT
switch fluorescence ratio: 1.09 ± 0.24

TTGGAGTATA
switch fluorescence ratio: 1.93 ± 0.28

TTGGAGTTGG
switch fluorescence ratio: 0.976 ± 0.043

TTGGATACCT
switch fluorescence ratio: 1.05 ± 0.13

TTGGATACGT
switch fluorescence ratio: 1.03 ± 0.091

TTGGATAGTT
switch fluorescence ratio: 1.09 ± 0.16

TTGGATCAAC
switch fluorescence ratio: 1.04 ± 0.051

TTGGATGCCT
switch fluorescence ratio: 1.01 ± 0.047

TTGGATGTGG
switch fluorescence ratio: 1.02 ± 0.022

TTGGATTATG
switch fluorescence ratio: 1.01 ± 0.012

TTGGATTCAT
switch fluorescence ratio: 0.995 ± 0.016

TTGGATTGAC
switch fluorescence ratio: 1.06 ± 0.025

TTGGCAAATG
switch fluorescence ratio: 0.988 ± 0.025

TTGGCAGGGA
switch fluorescence ratio: 0.998 ± 0.018

TTGGCATACG
switch fluorescence ratio: 1.06 ± 0.034

TTGGCATACT
switch fluorescence ratio: 2.64 ± 2.2

TTGGCATATG
switch fluorescence ratio: 1.07 ± 0.085

TTGGCATCAC
switch fluorescence ratio: 1.06 ± 0.045

TTGGCCGGAG
switch fluorescence ratio: 1.001 ± 0.0084

TTGGCCGGGT
switch fluorescence ratio: 1.042 ± 0.0059

TTGGCCTAAA
switch fluorescence ratio: 0.954 ± 0.04

TTGGCCTCGA
switch fluorescence ratio: 1.01 ± 0.039

TTGGCCTTAG
switch fluorescence ratio: 0.972 ± 0.015

TTGGCGAGGG
switch fluorescence ratio: 1.008 ± 0.0081

TTGGCGGCTT
switch fluorescence ratio: 1.02 ± 0.032

TTGGCGGGAC
switch fluorescence ratio: 0.9819 ± 0.0036

TTGGCGGGCA
switch fluorescence ratio: 0.998 ± 0.027

TTGGCGTAAG
switch fluorescence ratio: 1.03 ± 0.045

TTGGCGTATT
switch fluorescence ratio: 1.01 ± 0.071

TTGGCGTCCG
switch fluorescence ratio: 0.988 ± 0.047

TTGGCTAATT
switch fluorescence ratio: 1 ± 0.034

TTGGGAAGTA
switch fluorescence ratio: 0.985 ± 0.016

TTGGGACGGT
switch fluorescence ratio: 0.9972 ± 0.0076

TTGGGAGGAG
switch fluorescence ratio: 1.01 ± 0.025

TTGGGAGGCG
switch fluorescence ratio: 0.97 ± 0.039

TTGGGATGTG
switch fluorescence ratio: 0.986 ± 0.053

TTGGGATTAG
switch fluorescence ratio: 1.01 ± 0.029

TTGGGCATTT
switch fluorescence ratio: 1.05 ± 0.089

TTGGGCCCAA
switch fluorescence ratio: 1 ± 0.041

TTGGGCCGGG
switch fluorescence ratio: 0.991 ± 0.02

TTGGGCCTGA
switch fluorescence ratio: 1.002 ± 0.0032

TTGGGCGCAG
switch fluorescence ratio: 0.967 ± 0.019

TTGGGCGTGT
switch fluorescence ratio: 0.987 ± 0.021

TTGGGCTAGG
switch fluorescence ratio: 1 ± 0.0054

TTGGGCTTTT
switch fluorescence ratio: 0.996 ± 0.017

TTGGGGAAAC
switch fluorescence ratio: 0.99 ± 0.029

TTGGGGACGA
switch fluorescence ratio: 0.997 ± 0.032

TTGGGGACTT
switch fluorescence ratio: 1.02 ± 0.07

TTGGGGAGCT
switch fluorescence ratio: 1.04 ± 0.014

TTGGGGATAA
switch fluorescence ratio: 1.07 ± 0.09

TTGGGGATAG
switch fluorescence ratio: 1.11 ± 0.17

TTGGGGCCAG
switch fluorescence ratio: 1.09 ± 0.12

TTGGGGCCGT
switch fluorescence ratio: 1.04 ± 0.047

TTGGGGCTTA
switch fluorescence ratio: 1.03 ± 0.038

TTGGGGCTTT
switch fluorescence ratio: 1.02 ± 0.056

TTGGGGGAGA
switch fluorescence ratio: 1.02 ± 0.038

TTGGGGGAGG
switch fluorescence ratio: 0.989 ± 0.021

TTGGGGGATA
switch fluorescence ratio: 1.09 ± 0.24

TTGGGGGG
switch fluorescence ratio: 1.004 ± 0.0069

TTGGGGGGGA
switch fluorescence ratio: 1.02 ± 0.13

TTGGGGGGGC
switch fluorescence ratio: 0.997 ± 0.039

TTGGGGGTCT
switch fluorescence ratio: 0.968 ± 0.044

TTGGGGTAGA
switch fluorescence ratio: 1.05 ± 0.031

TTGGGGTATA
switch fluorescence ratio: 1.03 ± 0.055

TTGGGGTATG
switch fluorescence ratio: 1.01 ± 0.012

TTGGGGTT
switch fluorescence ratio: 0.9662 ± 0.0019
